According to patent publication US9745384B2, “Peptides useful for modulating histone demethylase function” (The Brigham and Women's Hospital, Inc., priority 2012, dated 2017):

Assays:
double strand DNA = test: DNA binding assay (GST-pulldown)
Description: 5-10 μg GST and GST-tagged NPAC truncation proteins were incubated with 1 μg linearized plasmid DNA overnight at 4° C. in 50 mM Tris pH 7.4, 200 mM NaCl, 0.2% NP-40, 1 mM MgCl2, 1 mM EDTA, 1 mM DTT, 0.02 mM ZnSO4. After extensive washing with the same buffer, bound DNA was eluted by incubating with 100 μl 10 mM Tris pH 8.0, 1% SDS for 15 minutes at 65° C. Pulldown DNA was purified using Qiagen PCR purification kit, resolved by agarose gel electrophoresis and stained with Ethidium Bromide.

[1] = tested on: nucleosomes purified from HeLa; test: Nucleosome pulldown by GST-NPAC proteins; format: binding
Description: Nucleosomes were purified from HeLa as previously described (Umlauf et al., 2004). To examine nucleosome binding selectivity of NPAC, 5 μg GST fusion protein bound to glutathione agarose were incubated with 20 μg nucleosomes overnight at 4° C. in nucleosome binding buffer (50 mM NaPO4 pH 7.4, 200 mM NaCl, 0.5% NP-40, 5% glycerol, 10 μM ZnSO4, 1 mM MgCl2, 1 mM DTT, 0.1 mM PMSF). After washing 4 times with the same buffer at 4° C., the beads were boiled in 1×SDS sample loading buffer and elute was resolved by 15% SDS-PAGE for immunoblot analysis or coomassie staining.
For free-DNA competition assays, human genomic DNA was purified from HeLa cells and fragmented to an average size around 300 bp by sonication. Equal amounts of GST-NPAC.d5 bound to glutathione beads were pre-incubated with 0, 5, 10, 25 μg genomic DNA fragments in nucleosome binding buffer for 30 minutes at room temperature, and equal amounts of nucleosomes were added and incubated overnight at 4° C. After extensive washing, GST-NPAC.d5 and bound nucleosomes were eluted by boiling in 1×SDS sample loading buffer, resolved by SDS-PAGE and stained with coomassie blue.

His-LSD2 [2] = target: T1, His-LSD2 (Homo sapiens, UniProt Q8NB78); test: GST-pulldown of His-LSD2 by GST-NPAC proteins; format: binding; conditions: coomassie blue staining
T1 construct: typically 0.5 μg full-length His-LSD2; made in house; host or cells: Sf9 insect cells
T1 sequence (Q8NB78 1-822): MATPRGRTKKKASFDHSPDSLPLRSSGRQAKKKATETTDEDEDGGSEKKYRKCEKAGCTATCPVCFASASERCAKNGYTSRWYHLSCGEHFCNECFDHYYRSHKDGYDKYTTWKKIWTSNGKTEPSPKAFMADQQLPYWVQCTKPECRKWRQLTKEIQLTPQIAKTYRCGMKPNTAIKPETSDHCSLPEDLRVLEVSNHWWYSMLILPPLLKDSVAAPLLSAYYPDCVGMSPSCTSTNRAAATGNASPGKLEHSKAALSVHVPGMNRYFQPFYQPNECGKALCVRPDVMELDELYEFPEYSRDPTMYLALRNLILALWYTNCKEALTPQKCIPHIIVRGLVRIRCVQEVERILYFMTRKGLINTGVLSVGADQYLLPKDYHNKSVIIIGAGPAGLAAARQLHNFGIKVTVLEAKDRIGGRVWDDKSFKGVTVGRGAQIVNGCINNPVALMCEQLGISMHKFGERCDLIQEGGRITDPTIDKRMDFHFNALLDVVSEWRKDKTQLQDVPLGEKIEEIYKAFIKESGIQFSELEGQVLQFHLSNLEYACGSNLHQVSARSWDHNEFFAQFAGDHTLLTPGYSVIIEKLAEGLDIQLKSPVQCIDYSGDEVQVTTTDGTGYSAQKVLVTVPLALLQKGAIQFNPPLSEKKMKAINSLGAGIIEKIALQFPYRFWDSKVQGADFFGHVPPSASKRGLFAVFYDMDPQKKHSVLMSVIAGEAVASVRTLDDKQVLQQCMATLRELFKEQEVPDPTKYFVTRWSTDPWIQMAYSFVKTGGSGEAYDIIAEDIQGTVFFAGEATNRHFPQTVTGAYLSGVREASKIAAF
Description: […] GST or GST-NPAC fusion proteins were bound to glutathione agarose, and were incubated with 2 μg full-length His-LSD2 overnight in 50 mM NaPO4 pH 7.4, 150 mM NaCl, 0.5% NP-40, 5% glycerol, 10 μM ZnSO4, 1 mM MgCl2, 1 mM DTT, 0.1 mM PMSF at 4° C. After washed 4 times with same buffer at 4° C., glutathione agarose beads were boiled in 1×SDS sample loading buffer. Elute was resolved on a 15% SDS-PAGE gel and stained by coomassie blue.

His-LSD2 [3] = target: T1, His-LSD2; test: Nucleosome demethylation assay (NPAC cofactor activity for LSD2, immunoblot); format: biochemical; conditions: threshold dosage of His-LSD2; nucleosomes purified from HeLa
Description: For nucleosome demethylation assays, typically 0.5 μg full-length His-LSD2, 1 μg NPAC protein or peptides, and 2 μg nucleosomes purified from HeLa were used, and demethylation efficiency was analyzed by SDS-PAGE electrophoresis and immunoblot using methylation specific anti-histone H3 antibodies as previously described (Shi et al. 2004).

B1: NPAC.d5: Example 2 GST-NPAC truncation, residues 1-120 (protein, UniProt Q49A26 1-120, looked up, fragment)
chain: MAAVSLRLGDLVWGKLGRYPPWPGKIVNPPKDLKKPRGKKCFFVKFFGTEDHAWIKVEQLKPYHAHKEEMIKINKGKRFQQAVDAVEEFLRRAKGKDQTSSHNSSDDKNRRNSSEERSRP
modifications: GST tag
In the case of B1, the “DNA binding (GST-pulldown)” value (double strand DNA) is reported as “pulls down DNA nearly as efficiently as NPAC.d1”, the “Nucleosome binding (GST-pulldown)” value [1] is reported as “can readily do so” and the “Nucleosome binding in the presence of increasing free double strand DNA” value ([1]; 0, 5, 10, 25 μg genomic DNA fragments) is reported as “compromised the nucleosome binding ability of NPAC.d5 in a dose dependent manner”.

B2: NPAC.d6: Example 2 GST-NPAC truncation, residues 1-81 (protein, UniProt Q49A26 1-81, looked up, fragment)
chain: MAAVSLRLGDLVWGKLGRYPPWPGKIVNPPKDLKKPRGKKCFFVKFFGTEDHAWIKVEQLKPYHAHKEEMIKINKGKRFQQ
modifications: GST tag
With B2 the “DNA binding (GST-pulldown)” value (double strand DNA) was “unable to interact with DNA” and the “Nucleosome binding (GST-pulldown)” value [1] was “failed to interact with nucleosomes”.

B3: NPAC.d3: Example 2 GST-NPAC truncation, residue 81-553 (protein, UniProt Q49A26 81-553, looked up, fragment)
chain: QAVDAVEEFLRRAKGKDQTSSHNSSDDKNRRNSSEERSRPNSGDEKRKLSLSEGKVKKNMGEGKKRVSSGSSERGSKSPLKRAQEQSPRKRGRPPKDEKDLTIPESSTVKGMMAGPMAAFKWQPTASEPVKDADPHFHHFLLSQTEKPAVCYQAITKKLKICEEETGSTSIQAADSTAVNGSITPTDKKIGFLGLGLMGSGIVSNLLKMGHTVTVWNRTAEKCDLFIQEGARLGRTPAEVVSTCDITFACVSDPKAAKDLVLGPSGVLQGIRPGKCYVDMSTVDADTVTELAQVIVSRGGRFLEAPVSGNQQLSNDGMLVILAAGDRGLYEDCSSCFQAMGKTSFFLGEVGNAAKMMLIVNMVQGSFMATIAEGLTLAQVTGQSQQTLLDILNQGQLASIFLDQKCQNILQGNFKPDFYLKYIQKDLRLAIALGDAVNHPTPMAAAANEVYKRAKALDQSDNDMSAVYRAYIH
modifications: GST tag
B3 was tested, and the “Nucleosome binding (GST-pulldown)” value [1] was “abolish the ability to interact with nucleosomes”.

B4: NPAC.d2: Example 2 GST-NPAC truncation, residues 1-250 (protein, UniProt Q49A26 1-250, looked up, fragment)
chain: MAAVSLRLGDLVWGKLGRYPPWPGKIVNPPKDLKKPRGKKCFFVKFFGTEDHAWIKVEQLKPYHAHKEEMIKINKGKRFQQAVDAVEEFLRRAKGKDQTSSHNSSDDKNRRNSSEERSRPNSGDEKRKLSLSEGKVKKNMGEGKKRVSSGSSERGSKSPLKRAQEQSPRKRGRPPKDEKDLTIPESSTVKGMMAGPMAAFKWQPTASEPVKDADPHFHHFLLSQTEKPAVCYQAITKKLKICEEETGSTS
modifications: GST tag
In the case of B4, the “Nucleosome binding (GST-pulldown)” value [1] is reported as “strong binding to nucleosomes”.

B5: NP.d8: NPAC residues 188-252 (protein)
chain: TVKGMMAGPMAAFKWQPTASEPVKDADPHFHHFLLSQTEKPAVCYQAITKKLKICEEETGSTSIQ
modifications: also: fused to dimerising Fc or GST
In the case of B5, the “LSD2 binding (GST-pulldown)” value (His-LSD2 [2]) is reported as “sufficient for LSD2 interaction” and the “Cofactor activity: stimulation of LSD2 demethylation of nucleosomal H3K4me2” value (His-LSD2 [3]) is reported as “significantly enhances LSD2 histone demethylase activity on nucleosomal substrates”.

B6: NPAC.d4: Example 2 GST-NPAC truncation, residue 181-553 (protein, UniProt Q49A26 181-553, looked up, fragment)
chain: LTIPESSTVKGMMAGPMAAFKWQPTASEPVKDADPHFHHFLLSQTEKPAVCYQAITKKLKICEEETGSTSIQAADSTAVNGSITPTDKKIGFLGLGLMGSGIVSNLLKMGHTVTVWNRTAEKCDLFIQEGARLGRTPAEVVSTCDITFACVSDPKAAKDLVLGPSGVLQGIRPGKCYVDMSTVDADTVTELAQVIVSRGGRFLEAPVSGNQQLSNDGMLVILAAGDRGLYEDCSSCFQAMGKTSFFLGEVGNAAKMMLIVNMVQGSFMATIAEGLTLAQVTGQSQQTLLDILNQGQLASIFLDQKCQNILQGNFKPDFYLKYIQKDLRLAIALGDAVNHPTPMAAAANEVYKRAKALDQSDNDMSAVYRAYIH
modifications: GST tag
B6 was tested, and the “Nucleosome binding (GST-pulldown)” value [1] was “abolish the ability to interact with nucleosomes”.
